Earlier results as cited in paper PMC7395068, “The evolution of strategies to minimise the risk of human drug-induced liver injury (DILI) in drug discovery and development” (Archives of Toxicology, 2020).
Read-outs that look alike come from different tables or passages of the source.

Legend:
[1] = cited from earlier work
[2] = cited from earlier work; remark: listed apart in the source
[3] = assignment in O'Brien 2006, ref O'Brien 2006
[4] = LTKB DILIrank category, ref Chen 2016
[5] = binary human DILI assignment, ref Chen 2016
[6] = binary DILI call, ref Chen 2016
[7] = binary in vivo human DILI call, ref Chen 2016
[8] = human DILI, LTKB DILIrank category, ref Chen 2016

For CC1(C)[C@@H](O)CC[C@]2(C)[C@H]3C(=O)C=C4[C@@H]5C[C@@](C)(C(=O)O)CC[C@]5(C)CC[C@@]4(C)[C@]3(C)CC[C@@H]12 [18 beta-glycyrrhetic acid], the “In vivo DILI” value ([1]; in vivo) is given as “-VE”.
In the case of CC(=O)Nc1ccc2c(c1)Cc1ccccc1-2 [acetamido uorene], the “In vivo DILI” value [1, 3] is given as “+VE”.
For C=CCO [ally alcohol], the “In vivo DILI” value [1, 3] is given as “+VE”.
In the case of c1ccc2c(c1)cc1ccc3cccc4ccc2c1c34 [benzopyrene], the “In vivo DILI” value [1, 3] is listed as “+VE”.
For C[N+](C)(C)CC(=O)O.[Cl-] [betaine hcl (acidic)], the “In vivo DILI” value [1, 3] is given as “+VE”.
For Brc1ccccc1 [bromobenzene], the “In vivo DILI” value [1, 3] is listed as “+VE”.
In the case of CCCCSCCC(N)C(=O)O (centres unmarked) [buthionine], the “In vivo DILI” value [1, 3] is given as “+VE”.
In the case of ClC(Cl)(Cl)Cl [carbon tetrachloride], the “In vivo DILI” value [1, 3] is given as “+VE”.
For CN(C)[C@@H]1C(O)=C(C(N)=O)C(=O)[C@@]2(O)C(O)=C3C(=O)c4c(O)ccc(Cl)c4[C@@](C)(O)[C@H]3C[C@@H]12 [chlortetracycline], the “In vivo DILI” value ([1]; in vivo) is given as “+VE”.
In the case of CC1(COc2ccc(CC3SC(=O)NC3=O)cc2)CCCCC1 (centres unmarked) [ciglitizone], the “In vivo DILI” value ([1]; in vivo) is listed as “-VE”.
In the case of O=C(O)CC(O)(CC(=O)O)C(=O)O [citrate], the “In vivo DILI” value ([1]; in vivo) is listed as “-VE”.
For CCOC(Nc1ccc(C(=O)O)cc1)C(=O)c1ccc(-c2ccccc2)cc1 (centres unmarked) [xenazoic acid], the DILI severity category [2, 4] is given as “vMost-DILI-Concern” and the “DILI +VE (5-8), DILI -VE (-4)” value [2, 5] is given as “+VE”.
In the case of O=C1Cc2cc(CCN3CCN(c4nsc5ccccc45)CC3)c(Cl)cc2N1 [ziprasidone], the DILI severity category [2, 4] is given as “vLess-DILI-Concern” and the “DILI +VE (5-8), DILI -VE (-4)” value [2, 5] is given as “+VE”.
In the case of O=P(O)(O)C(O)(Cn1ccnc1)P(=O)(O)O [zoledronate], the DILI severity category [2, 4] is listed as “vLess-DILI-Concern” and the “DILI +VE (5-8), DILI -VE (-4)” value [2, 5] is listed as “+VE”.
For CN(C)CCc1c[nH]c2ccc(C[C@H]3COC(=O)N3)cc12 [zolmitriptan], the DILI severity category [2, 4] is listed as “Ambiguous DILI-concern” and the “DILI +VE (5-8), DILI -VE (-4)” value [2, 5] is listed as “-VE”.
In the case of Argipressin, the DILI severity category [2, 4] is given as “vNo-DILI-Concern” and the “DILI +VE (5-8), DILI -VE (-4)” value [2, 6] is given as “-VE”.
For Sodium polystyrene sulfonate, the “DILI +VE (5-8), DILI -VE (-4)” value ([2]; in vivo) is given as “-VE” and the DILI severity category ([2]; in vivo) is given as “vNo-DILI-Concern”.
For abatacept, the “DILI +VE (5-8), DILI -VE (-4)” value ([2]; in vivo) is listed as “+VE” and the DILI severity category ([2]; in vivo) is listed as “vLess-DILI-Concern”.
In the case of abciximab, the “DILI +VE (5-8), DILI -VE (-4)” value ([2]; in vivo) is listed as “-VE” and the DILI severity category ([2]; in vivo) is listed as “vNo-DILI-Concern”.
For adalimumab, the “DILI +VE (5-8), DILI -VE (-4)” value ([2]; in vivo) is listed as “+VE” and the DILI severity category ([2]; in vivo) is listed as “vLess-DILI-Concern”.
For agalsidase beta, the “DILI +VE (5-8), DILI -VE (-4)” value ([2]; in vivo) is given as “-VE” and the DILI severity category ([2]; in vivo) is given as “vNo-DILI-Concern”.
For aldesleukin, the “DILI +VE (5-8), DILI -VE (-4)” value ([2]; in vivo) is given as “-VE” and the DILI severity category ([2]; in vivo) is given as “Ambiguous DILI-concern”.
For alemtuzumab, the “DILI +VE (5-8), DILI -VE (-4)” value ([2]; in vivo) is listed as “-VE” and the DILI severity category ([2]; in vivo) is listed as “vNo-DILI-Concern”.
For alglucosidase alfa, the “DILI +VE (5-8), DILI -VE (-4)” value ([2]; in vivo) is given as “-VE” and the DILI severity category ([2]; in vivo) is given as “vNo-DILI-Concern”.
For alteplase, the “DILI +VE (5-8), DILI -VE (-4)” value ([2]; in vivo) is listed as “-VE” and the DILI severity category ([2]; in vivo) is listed as “vNo-DILI-Concern”.
In the case of anakinra, the “DILI +VE (5-8), DILI -VE (-4)” value ([2]; in vivo) is given as “+VE” and the DILI severity category ([2]; in vivo) is given as “vLess-DILI-Concern”.
In the case of aprotinin, the DILI severity category [2, 4] is given as “Ambiguous DILI-concern” and the “DILI +VE (5-8), DILI -VE (-4)” value [2, 6] is given as “-VE”.
For asparaginase, the “DILI +VE (5-8), DILI -VE (-4)” value ([2]; in vivo) is listed as “+VE” and the DILI severity category ([2]; in vivo) is listed as “vMost-DILI-Concern”.
For basiliximab, the “DILI +VE (5-8), DILI -VE (-4)” value ([2]; in vivo) is given as “-VE” and the DILI severity category ([2]; in vivo) is given as “vNo-DILI-Concern”.
For bevacizumab, the “DILI +VE (5-8), DILI -VE (-4)” value ([2]; in vivo) is listed as “-VE” and the DILI severity category ([2]; in vivo) is listed as “vNo-DILI-Concern”.
In the case of bivalirudin, the DILI severity category [2, 4] is given as “vNo-DILI-Concern” and the “DILI +VE (5-8), DILI -VE (-4)” value [2, 6] is given as “-VE”.
For bleomycin, the DILI severity category [2, 4] is listed as “Ambiguous DILI-concern” and the “DILI +VE (5-8), DILI -VE (-4)” value [2, 6] is listed as “-VE”.
In the case of botulinum toxin type a, the “DILI +VE (5-8), DILI -VE (-4)” value ([2]; in vivo) is listed as “-VE” and the DILI severity category ([2]; in vivo) is listed as “vNo-DILI-Concern”.
For canakinumab, the “DILI +VE (5-8), DILI -VE (-4)” value ([2]; in vivo) is given as “+VE” and the DILI severity category ([2]; in vivo) is given as “vLess-DILI-Concern”.
In the case of certolizumab pegol, the “DILI +VE (5-8), DILI -VE (-4)” value ([2]; in vivo) is listed as “-VE” and the DILI severity category ([2]; in vivo) is listed as “Ambiguous DILI-concern”.
For cholestyramine, the “DILI +VE (5-8), DILI -VE (-4)” value ([2]; in vivo) is given as “-VE” and the DILI severity category ([2]; in vivo) is given as “Ambiguous DILI-concern”.
In the case of colestipol, the “DILI +VE (5-8), DILI -VE (-4)” value ([2]; in vivo) is given as “-VE” and the DILI severity category ([2]; in vivo) is given as “Ambiguous DILI-concern”.
For colistimethate, the “DILI +VE (5-8), DILI -VE (-4)” value ([2]; in vivo) is given as “-VE” and the DILI severity category ([2]; in vivo) is given as “vNo-DILI-Concern”.
For “corticotropin (SYSMEHFRWGKPVGKKRRPVKVYPNGAEDESAEAFPLEF; Corticotropin; UniProt P01189 138-176, looked up)”, the “DILI +VE (5-8), DILI -VE (-4)” value [2, 7] is given as “-VE” and the DILI severity category [2, 8] is given as “vNo-DILI-Concern”.
For dalteparin sodium, the “DILI +VE (5-8), DILI -VE (-4)” value ([2]; in vivo) is listed as “+VE” and the DILI severity category ([2]; in vivo) is listed as “vLess-DILI-Concern”.
In the case of denileukin diftitox, the “DILI +VE (5-8), DILI -VE (-4)” value [2, 7] is given as “-VE” and the DILI severity category [2, 8] is given as “Ambiguous DILI-concern”.
For ecallantide, the “DILI +VE (5-8), DILI -VE (-4)” value ([2]; in vivo) is given as “-VE” and the DILI severity category ([2]; in vivo) is given as “vNo-DILI-Concern”.
In the case of enoxaparin, the “DILI +VE (5-8), DILI -VE (-4)” value ([2]; in vivo) is given as “+VE” and the DILI severity category ([2]; in vivo) is given as “vLess-DILI-Concern”.
For epoetin alfa, the “DILI +VE (5-8), DILI -VE (-4)” value ([2]; in vivo) is listed as “-VE” and the DILI severity category ([2]; in vivo) is listed as “vNo-DILI-Concern”.
